Consider five molecules from US20130310265A1, “METHODS OF PREPARING CYCLIC PEPTIDES AND USES THEREOF” (NORTH CAROLINA STATE UNIVERSITY, priority 2012, published 2013).

Bridges are numbered along the chain shown (N, C = ends). Where no end group is shown, it is not given here. [ ]: non-standard residue; d: D form. Lac = C[C@H](O)C(=O)O

Experiment [1] deals with T1, Neutravidin (Gallus gallus, UniProt P02701). The experiment is described as follows: Screening simulation by the Mondorf-Carbonell radiological procedure with 14C-radiolabeled Neutravidin. The class given is binding. Particulars: 10 mg of 50:50 mix of ligand resin and negative control resin, PBS, 5% 14C-radiolabeled Neutravidin, washed with PBS 0.2M NaCl 0.1% Tween 20, film five days. The text has this: A solid phase library of reversible cyclic peptides synthesized as explained in sections 5.2 and 5.3 can be screened for on-bead ligands that bind to a target biological. […] The selected beads are then subjected to the alkaline treatment reported in section 5.7. See Mondorf and Carbonell 1998.
T1 sequence (P02701 25-152): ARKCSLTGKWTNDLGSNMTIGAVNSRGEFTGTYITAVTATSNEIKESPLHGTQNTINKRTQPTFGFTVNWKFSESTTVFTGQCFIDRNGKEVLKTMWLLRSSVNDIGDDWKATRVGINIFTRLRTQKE
Neutravidin was radiolabeled according to the procedure reported by Mondorf et al. using ^14C formaldehyde by reductive amination. The prospected extent of radiolabeling was 5%. Mondorf Carbonell 1998.
Two aliquots of cyclo[Lac-A-DRASPY-E]-HMBA-ChemMatrix resin and cyclo[Lac-A-VVWVV-E]-HMBA-ChemMatrix (SEQ ID NO:20-21) resin and were mixed in a 50:50 proportion. 10 mg of the resin mix was swollen in 20% methanol in water for 30 min and then rinsed with PBS, pH 7.4 (3×5 min). The resin slur was then mixed with 200 μl of 5 mg/mL ^14C-labelled Neutravidin. After 2 hrs of incubation the supernatant was decanted and the resin was washed with PBS buffer containing 0.2M NaCl and 0.1% (w/v) Tween 20 until the radioactivity reached the baseline level. […]
(§1) The screening procedure followed the method set forth in sections 5.5 and 6.5. […] A volume of 250 mL of washing solution was necessary in order for the radioactivity to reach the baseline level. […] In both cases, the difference between the levels of radioactivity carried by the resin was enough to discriminate the ligand resin beads from the negative control beads.

For experiment [2], the target named is T1, Neutravidin. The experiment is described as follows: Chromatographic comparison of cyclic depsipeptide and cyclic peptide resins on column. As to conditions: Toyopearl resin column, binding PBS pH 7.4, elution 0.2M Glycine pH 2.5, absorbance 280 nm. As to the method:
Thirty-five milligrams of cyclo[Lac-A-DRASPY-E]-Toyopearl resin and cyclo[A-A-DRASPY-E]-Toyopearl (SEQ ID NO:21, 29) resin were packed in a 30 mm×2.1 mm I.D. Microbore column (0.1 mL) and swollen with 20% v/v methanol. One hundred microliters of feed sample, namely Neutravidin 5 mg/mL in PBS pH 7.4, was loaded onto the column at a flow rate of 0.05 mL/min (87 cm/h). The column was washed with 2 mL of equilibration buffer at a flow rate of 0.2 mL/min (348 cm/h). Elution was then performed with 4 mL of 0.2M glycine buffer pH 2.5 at the flow rate of 0.4 mL/min (696 cm/h). Cleaning and regeneration were performed by 4 mL of 0.85% phosphoric acid. The effluent was monitored by absorbance at 280 nm. Fractions were collected and concentrated five times by centrifugation at 4° C., 20817×g for 30 min using an Amicon® Ultra centrifugal filter (3000 MWCO, Ultracel®, Millipore, Billerica, Mass., USA).
Cyclic depsipeptides are present in nature as very selective ligands and enzyme substrates. In many cases, however, the depside (ester) bond is found to play an active role in their biological activity and the homodetic cyclic peptide version of the same sequence can partially or completely loose the target affinity. […]

In experiment [3] the target is T2, Neutravidin (UniProt P02701 25-152).
T2 construct: In the bead screening it was radiolabelled with 14C formaldehyde by reductive amination (prospected extent 5%); In the column runs it was unlabelled, 5 mg/mL in PBS pH 7.4; also called 14C-labelled Neutravidin; target protein
T2 sequence (P02701 25-152): as above
The experiment is described as follows: radiological on-bead screening (autoradiography of beads in agarose). How it is done:
Two aliquots of cyclo[Lac-A-DRASPY-E]-HMBA-ChemMatrix resin and cyclo[Lac-A-VVWVV-E]-HMBA-ChemMatrix (SEQ ID NO:20-21) resin and were mixed in a 50:50 proportion. 10 mg of the resin mix was swollen in 20% methanol in water for 30 min and then rinsed with PBS, pH 7.4 (3×5 min). The resin slur was then mixed with 200 μl of 5 mg/mL ¹⁴C-labelled Neutravidin. After 2 hrs of incubation the supernatant was decanted and the resin was washed with PBS buffer containing 0.2M NaCl and 0.1% (w/v) Tween 20 until the radioactivity reached the baseline level. The washed resin was then mixed with 20 mL of 1% low melting agarose solution. The mixture was swirled to form a uniform suspension and then the slurry was poured on 16×18 cm gelbond film to form a monolayer of beads. This gel was air-dried overnight in a hood. The dried agarose gel was then exposed to photographic film for 5 days at room temperature. The photographic film was then developed, the dark spot located on the film and the corresponding beads selected.
as §1

“cyclo[Lac-A-VVWVV-E] ([Lac]AVVWVVE; bridge N-8; not fully specified (C-terminus, bridges); printed as cyclo[Lac-A-VVWVV-E]) [cyclo[Lac-A-VVWVV-E]-HMBA-ChemMatrix]”: in experiment [1], the “amount of radiolabeled target protein bound by resin beads (dark spot on developed radiographic film)” value was “bound a sufficient amount of radiolabeled target protein to impress a dark spot”. In the case of “cyclo[A-A-DRASPY-E] (AADRASPYE-{Toyopearl AF‑Amino‑650M resin}; lactam N-9; not fully specified; printed as cyclo[A-A-DRASPY-E]) [cyclo[A-A-DRASPY-E]-Toyopearl, homodetic cyclic peptide analogue of DRASPY depsipeptide on Toyopearl resin]”, in experiment [2], the “binding chromatogram, cyclic depsipeptide vs cyclic peptide version of the same ligand sequence (FIG. 35)” value is reported as “no difference”. As for “cyclo[Lac-A-DRASPY-E] [cyclo[Lac-A-DRASPY-E]-HMBA-ChemMatrix]”, the “amount of radiolabeled target protein bound by resin beads (dark spot on developed radiographic film)” value in experiment [1] is on record as “bound a sufficient amount of radiolabeled target protein to impress a dark spot”. Turning to “cyclo[Lac-A-DRASPY-E] [cyclo[Lac-A-DRASPY-E]-Toyopearl]”, the “binding chromatogram, cyclic depsipeptide vs cyclic peptide version of the same ligand sequence (FIG. 35)” value in experiment [2] was “no difference”.

B1: cyclo[Lac-A-VVWVV-E] (peptide)
peptide: [Lac]AVVWVVE
modifications: bridge N-8; not fully specified (C-terminus, bridges); printed as cyclo[Lac-A-VVWVV-E]
notes: also called cyclo[Lac-A-VVWVV-E]-HMBA-ChemMatrix; negative control resin
In the case of B1, in experiment [3], the binding result is recorded as “no binding”.
